{"source": "paper PMC8657457", "molecular_target": "CyOFP1", "assay": "SEC; FPLC on Superdex 75 10/300 GL; elution in 20 mM Tris-HCl (pH 7.80), 200 mM NaCl; oligomeric state from the elution volume against molecular weight standards"}
{"substance": "CyOFP1", "values": [{"measurement": "stoichiometry N", "result": 2}]}
